Experimental data: article PMC6901930

Target: Major capsid protein (MCP), Trx fusion (Singapore grouper iridovirus (SGIV-Gx), UniProt Q5YFJ3 1-463)
Test: EMSA
Settings: protein: recombinant; tags: Trx-His (pET-32a), 68 kDa

B1: Q5c (ssDNA)
DNA: TATTCGGGTTATTGCTCCTCTTTATTGTCACCTGGATGTATGATCGTGTAG
B1: binds.
